Laboratory results taken from patent publication US20060270591A1, “Androgen receptor coregulators” (priority 2002, published 2006).
Where two headings read alike, the source gives them in different places.

T1: PR (Homo sapiens, UniProt P06401)
T1 construct: expressed in transfected cells; host or cells: DU145, PC-3
T1 sequence (P06401 1-933): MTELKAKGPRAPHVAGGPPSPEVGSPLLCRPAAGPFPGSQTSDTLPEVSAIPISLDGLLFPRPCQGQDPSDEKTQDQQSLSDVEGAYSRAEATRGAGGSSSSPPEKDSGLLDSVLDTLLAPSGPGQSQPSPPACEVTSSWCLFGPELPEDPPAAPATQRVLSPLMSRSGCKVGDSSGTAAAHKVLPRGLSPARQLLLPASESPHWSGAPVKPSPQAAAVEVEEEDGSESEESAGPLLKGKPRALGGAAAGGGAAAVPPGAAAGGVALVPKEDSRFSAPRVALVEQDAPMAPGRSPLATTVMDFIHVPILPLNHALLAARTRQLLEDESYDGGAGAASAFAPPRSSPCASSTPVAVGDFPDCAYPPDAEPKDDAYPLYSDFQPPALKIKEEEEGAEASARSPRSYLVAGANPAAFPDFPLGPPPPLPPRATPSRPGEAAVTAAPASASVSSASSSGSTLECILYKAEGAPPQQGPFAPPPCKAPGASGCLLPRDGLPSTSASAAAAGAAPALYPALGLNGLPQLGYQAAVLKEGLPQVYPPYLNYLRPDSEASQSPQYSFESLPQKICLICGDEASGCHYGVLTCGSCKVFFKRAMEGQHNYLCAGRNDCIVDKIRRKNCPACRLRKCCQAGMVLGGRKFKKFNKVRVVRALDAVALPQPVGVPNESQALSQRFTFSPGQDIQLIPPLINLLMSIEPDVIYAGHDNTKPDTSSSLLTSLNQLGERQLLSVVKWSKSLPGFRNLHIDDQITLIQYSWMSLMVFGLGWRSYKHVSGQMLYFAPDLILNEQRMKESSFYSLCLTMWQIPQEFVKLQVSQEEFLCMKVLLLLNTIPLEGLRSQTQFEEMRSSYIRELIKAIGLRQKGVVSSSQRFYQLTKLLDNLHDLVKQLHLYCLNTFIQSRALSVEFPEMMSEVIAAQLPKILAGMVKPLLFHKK


Experiments:
[1] = molecular target: T1, PR; settings: previous studies; cited from earlier work
[2] = system: AR; experiment: AR transactivation assay, MMTV-CAT reporter, transient transfection (Example 1); format: cell-based, human
AR, sequence (P10275 whole entry): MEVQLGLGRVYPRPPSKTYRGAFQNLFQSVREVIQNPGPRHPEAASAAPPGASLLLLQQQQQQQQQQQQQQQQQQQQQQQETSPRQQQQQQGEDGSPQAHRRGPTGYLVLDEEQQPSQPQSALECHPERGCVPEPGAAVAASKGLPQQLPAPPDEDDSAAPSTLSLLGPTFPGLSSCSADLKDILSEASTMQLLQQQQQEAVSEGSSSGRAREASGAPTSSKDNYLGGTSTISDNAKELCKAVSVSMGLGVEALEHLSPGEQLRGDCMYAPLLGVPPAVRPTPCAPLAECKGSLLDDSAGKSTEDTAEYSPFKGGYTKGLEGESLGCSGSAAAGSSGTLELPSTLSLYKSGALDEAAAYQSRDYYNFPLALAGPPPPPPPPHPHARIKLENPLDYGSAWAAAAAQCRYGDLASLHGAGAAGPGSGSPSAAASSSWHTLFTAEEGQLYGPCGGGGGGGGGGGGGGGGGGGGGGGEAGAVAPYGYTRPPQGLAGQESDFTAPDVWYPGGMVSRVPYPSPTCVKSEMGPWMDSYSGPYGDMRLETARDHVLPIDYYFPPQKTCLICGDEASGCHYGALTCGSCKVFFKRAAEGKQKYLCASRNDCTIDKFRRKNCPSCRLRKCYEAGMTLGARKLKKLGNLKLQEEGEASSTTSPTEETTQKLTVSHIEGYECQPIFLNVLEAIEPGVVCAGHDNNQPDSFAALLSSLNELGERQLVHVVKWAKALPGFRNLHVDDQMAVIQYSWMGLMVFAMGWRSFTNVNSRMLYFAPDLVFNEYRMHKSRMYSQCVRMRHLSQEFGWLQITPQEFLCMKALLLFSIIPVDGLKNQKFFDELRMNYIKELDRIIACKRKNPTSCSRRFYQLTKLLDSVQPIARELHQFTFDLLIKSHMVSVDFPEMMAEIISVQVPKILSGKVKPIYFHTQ
Experimental: Human prostate cancer DU145 or PC3 cells, or human lung carcinoma cells NCI H1299 were grown in Dulbecco's minimal essential medium (DMEM) containing penicillin (25 U/ml), streptomycin (25˜g/ml), and 5% fetal calf serum (FCS). One hour before transfection, the medium was changed to DMEM with 5% charcoal-stripped FCS. […] A β-galactosidase expression plasmid, pCMV-β-gal, was used as an internal control for transfection efficiency.
(§1) The medium was changed 24 hr posttransfection and the cells treated with either steroid hormones or hydroxyflutamide, and cultured for an additional 24 hr. Cells were harvested and assayed for CAT activity after the cell lysates were normalized by using β-galactosidaseas an internal control. Chloramphenicol acetyltransferase (CA) activity was visualized by PhosphorImager (Molecular Dynamics) and quantitated by ImageQuant software (Molecular Dynamics).

[3] = molecular target: T1, PR; experiment: PR transcription activity, MMTV-CAT reporter (Example 1); format: cell-based; settings: DU145 cells
Experimental: 366. Human prostate cancer DU145 or PC3 cells, or human lung carcinoma cells NCI H1299 were grown in Dulbecco's minimal essential medium (DMEM) containing penicillin (25 U/ml), streptomycin (25˜g/ml), and 5% fetal calf serum (FCS). One hour before transfection, the medium was changed to DMEM with 5% charcoal-stripped FCS. Phenol red-free and serum-free media were used on the experiments employing E2 or TGF-β, respectively. A β-galactosidase expression plasmid, pCMV-β-gal, was used as an internal control for transfection efficiency.
as §1, with “367. Cells were transfected using the calcium phosphate technique (Yeh, et al. Molec. Endocrinol. 8:77-88, 1994). The” for “The”

[4] = system: AR; experiment: AR transactivation reporter gene assay (CAT/Luc) in prostate cancer cell lines (Example 2); format: cell-based, human
Experimental: 394. The human prostate cancer cell lines, LNCaP, PC-3, and DU145, were maintained in Dulbecco's minimum essential medium (DMEM) containing 5% fetal calf serum (FCS). Transfections using the calcium phosphate precipitation method and chloramphenicol acetyltransferase (CAT) and luciferase (Luc) assays were performed as previously described (Miyamoto et al. (1998) Proc. Natl. Acad. Sci. U.S.A. 95, 7379-7384; Yeh et al. (1999) Endocrine 11, 195-202; Miyamoto et al. (1998) Proc. Natl. Acad. Sci. U.S.A. 95, 11083-11088). Briefly, 1-4×10^5 cells were plated on 35-mm or 60-mm dishes 24 h before adding the precipitation mix containing a CAT or Luc reporter gene and a β-galactosidase expression plasmid (pCMV-β-gal) as an internal control for normalization of transfection efficiency. The medium was changed to phenol-red-free DMEM with 5% charcoal-stripped FCS 1 h before transfection. In each experiment, the total amount of transfected DNA per dish was maintained as a constant by addition of empty expression vector (pSG5 or pVP16, as appropriate). […] The cells were then harvested and whole cell extracts were used for CAT or Luc assay. The CAT activity was quantitated with a PhosphorImager (Molecular Dynamics). The Luc assay was determined using a Dual-Luciferase Reporter Assay System (Promega) and luminometer.

| enhancement of the transcription activity of PR [3] | Molecule | enhancement of the transcription activity of PR [1] | enhancement of the transcription activity of AR ([2]; DU145 cells) | enhancement of wtAR transactivation by coexpression ([2]; wtAR, DHT 10^−10 to 10^−8 M) | effect on ARA55-, ARA70-, Rb-, or SRC-1-enhanced AR transactivation ([4]; DU145 cells, 1 nM DHT) | effect on DHT- or HF-mediated AR transcription activity ([4]; LNCaP, PC-3, DU145 cells, 1 nM DHT or 1 μM HF) | inhibition of AR-mediated transcription ([2]; H1299 cells, endogenous ARA54) |
| --- | --- | --- | --- | --- | --- | --- | --- |
| 3-5 fold | ARA54: 54 kDa protein that interacts with AR in an androgen-dependent manner; AR coactivator (protein) MSSEDREAQEDELLALASIYDGDEFRKAESVQGGETRIYLDLPQNFKIFVSGNSNECLQNSGFEYTICFLPPLVLNFELPPDYPSSSPPSFTLSGKWLSPTQLSALCKHLDNLWEEHRGSVVLFAWMQFLKEETLAYLNIVSPFELKIGSQKKVQRRTAQASPNTELDFGGAAGSDVDQEEIVDERAVQDVESLSNLIQEILDFDQAQQIKCFNSKLFLCSICFCEKLGSECMYFLECRHVYCKACLKDYFEIQIRDGQVQCLNCPEPKCPSVATPGQVKELVEAELFARYDRLLLQSSLDLMADVVYCPRPCCQLPVMQEPGCTMGICSSCNFAFCTLCRLTYHGVSPCKVTAEKLMDLRNEYLQADEANKRLLDQRYGKRVIQKALEEMESKEWLEKNSKSCPCCGTPIEKLDGCNKMTCTGCMQYFCWICMGSLSRANPYKHFNDPGSPCFNRLFYAVDVDDDIWEDEVED | up to 4 fold | up to 6 fold | 3-5 fold |  |  |  |
|  | C′-ARA54: C-terminal region (amino acids 361-474) of ARA54 (protein, Homo sapien, C-terminal region (amino acids 361-474) of ARA54) RNEYLQADEANKRLLDQRYGKRVIQKALEEMESKEWLEKNSKSCPCCGTPIEKLDGCNKMTCTGCMQYFCWICMGSLSRANPYKHFNDPGSPCFNRLFYAVDVDDDIWEDEVED |  |  |  | only marginal or slight suppressive effects | suppresses DHT- or HF-mediated AR transcription activity | up to 70% |
